Our source for the binding result and Kd values is paper PMC5977995.

The target in series [1] is T1, hnRNPA1 RNA-binding domain (human, UniProt P09651 1-196). Nature of the series: UV photo-cross-linking.
For series [2], the target named is T1, hnRNPA1 RNA-binding domain. Nature of the series: EMSA.

T1 sequence (P09651 1-196): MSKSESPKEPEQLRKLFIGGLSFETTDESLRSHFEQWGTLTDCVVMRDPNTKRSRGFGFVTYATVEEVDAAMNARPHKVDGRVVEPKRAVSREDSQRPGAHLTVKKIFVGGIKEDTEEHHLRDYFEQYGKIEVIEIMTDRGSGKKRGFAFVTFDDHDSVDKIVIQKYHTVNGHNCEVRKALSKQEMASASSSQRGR

For the molecule UUAGGGUUAGGG (structured_RNA, 5-bromouridine at position 8 (printed UUAGGGU(BrU)-AGGG)) [BrU 12-mer telomere RNA], the binding result in series [1] is on record as “binds”.

Molecule UUAGGGUUAGGGUUAGGGUUAGGG (structured_RNA) [24-mer telomere RNA] yielded a Kd in series [2] of 0.0376 µM.
